B1: W264S: CD19 variant (protein)
chain: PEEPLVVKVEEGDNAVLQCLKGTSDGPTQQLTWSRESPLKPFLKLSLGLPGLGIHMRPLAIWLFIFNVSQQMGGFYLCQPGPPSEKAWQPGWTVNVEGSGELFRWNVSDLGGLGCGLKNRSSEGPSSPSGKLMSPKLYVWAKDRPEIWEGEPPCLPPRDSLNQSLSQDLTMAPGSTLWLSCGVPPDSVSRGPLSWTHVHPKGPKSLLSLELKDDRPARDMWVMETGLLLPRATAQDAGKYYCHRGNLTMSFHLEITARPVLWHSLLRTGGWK
B2: L228V: CD19 variant (protein)
chain: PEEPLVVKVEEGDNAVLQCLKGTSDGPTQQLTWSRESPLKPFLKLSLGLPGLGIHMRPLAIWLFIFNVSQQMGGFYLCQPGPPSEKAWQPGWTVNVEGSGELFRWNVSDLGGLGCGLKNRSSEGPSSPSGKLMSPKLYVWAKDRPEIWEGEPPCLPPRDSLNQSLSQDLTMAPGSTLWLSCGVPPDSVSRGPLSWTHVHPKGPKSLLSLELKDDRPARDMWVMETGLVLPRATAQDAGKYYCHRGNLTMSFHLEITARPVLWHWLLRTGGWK
B3: W262A: CD19 variant (protein)
chain: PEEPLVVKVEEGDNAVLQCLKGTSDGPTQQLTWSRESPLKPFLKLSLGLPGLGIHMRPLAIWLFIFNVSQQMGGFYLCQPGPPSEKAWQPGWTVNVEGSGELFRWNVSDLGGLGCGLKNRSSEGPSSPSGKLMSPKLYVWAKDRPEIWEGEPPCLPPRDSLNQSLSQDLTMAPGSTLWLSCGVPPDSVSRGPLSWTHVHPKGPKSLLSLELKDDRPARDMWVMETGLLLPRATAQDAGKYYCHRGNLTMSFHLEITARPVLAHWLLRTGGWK
B4: V260R: CD19 variant (protein)
chain: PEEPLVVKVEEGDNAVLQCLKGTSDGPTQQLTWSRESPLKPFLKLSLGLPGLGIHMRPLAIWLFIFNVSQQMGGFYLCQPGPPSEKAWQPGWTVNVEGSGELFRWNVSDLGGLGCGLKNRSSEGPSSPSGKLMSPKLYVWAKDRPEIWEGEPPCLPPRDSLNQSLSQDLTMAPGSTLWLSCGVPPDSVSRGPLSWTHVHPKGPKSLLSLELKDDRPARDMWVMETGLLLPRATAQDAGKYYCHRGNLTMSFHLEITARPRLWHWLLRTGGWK
B5: W264R: CD19 variant (protein)
chain: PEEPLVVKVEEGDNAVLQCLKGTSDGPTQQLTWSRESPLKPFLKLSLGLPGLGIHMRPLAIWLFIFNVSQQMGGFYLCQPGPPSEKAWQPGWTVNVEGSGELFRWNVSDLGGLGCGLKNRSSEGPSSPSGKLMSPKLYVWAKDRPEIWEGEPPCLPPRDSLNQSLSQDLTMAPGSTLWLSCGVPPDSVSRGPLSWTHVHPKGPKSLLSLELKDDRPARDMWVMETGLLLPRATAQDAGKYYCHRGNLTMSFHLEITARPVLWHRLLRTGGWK
B6: W262E: CD19 variant (protein)
chain: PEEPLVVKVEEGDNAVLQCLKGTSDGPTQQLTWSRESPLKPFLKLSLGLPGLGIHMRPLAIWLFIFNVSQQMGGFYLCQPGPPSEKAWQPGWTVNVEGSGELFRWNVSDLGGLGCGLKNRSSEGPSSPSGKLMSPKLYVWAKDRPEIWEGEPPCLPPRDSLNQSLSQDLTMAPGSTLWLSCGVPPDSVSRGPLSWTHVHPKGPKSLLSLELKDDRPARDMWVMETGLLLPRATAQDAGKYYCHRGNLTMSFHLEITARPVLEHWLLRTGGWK
B7: W262R: CD19 variant (protein)
chain: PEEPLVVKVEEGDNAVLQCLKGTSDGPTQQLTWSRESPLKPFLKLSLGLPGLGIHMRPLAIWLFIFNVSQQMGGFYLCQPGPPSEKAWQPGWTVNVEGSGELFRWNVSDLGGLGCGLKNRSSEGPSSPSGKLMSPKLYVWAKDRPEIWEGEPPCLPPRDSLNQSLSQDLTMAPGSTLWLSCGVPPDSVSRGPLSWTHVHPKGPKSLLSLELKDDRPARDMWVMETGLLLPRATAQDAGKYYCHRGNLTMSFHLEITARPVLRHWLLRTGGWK
B8: W262P: CD19 variant (protein)
chain: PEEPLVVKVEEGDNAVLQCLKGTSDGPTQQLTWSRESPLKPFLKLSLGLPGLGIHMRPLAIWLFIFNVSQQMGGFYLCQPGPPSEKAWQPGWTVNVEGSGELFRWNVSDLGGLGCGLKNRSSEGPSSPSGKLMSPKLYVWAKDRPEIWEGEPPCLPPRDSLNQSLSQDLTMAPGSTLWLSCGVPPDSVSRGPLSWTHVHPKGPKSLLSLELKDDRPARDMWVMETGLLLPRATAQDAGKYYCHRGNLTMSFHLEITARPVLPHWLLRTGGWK
B9: V260K: CD19 variant (protein)
chain: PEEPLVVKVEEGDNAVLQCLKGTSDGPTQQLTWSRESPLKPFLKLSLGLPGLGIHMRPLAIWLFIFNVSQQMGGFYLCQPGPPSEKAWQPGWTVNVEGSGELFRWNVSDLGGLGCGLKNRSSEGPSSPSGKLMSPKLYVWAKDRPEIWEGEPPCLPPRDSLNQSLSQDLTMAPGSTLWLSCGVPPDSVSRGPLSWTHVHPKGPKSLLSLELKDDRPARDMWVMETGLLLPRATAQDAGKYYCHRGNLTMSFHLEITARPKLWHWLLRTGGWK
B10: W264T: CD19 variant (protein)
chain: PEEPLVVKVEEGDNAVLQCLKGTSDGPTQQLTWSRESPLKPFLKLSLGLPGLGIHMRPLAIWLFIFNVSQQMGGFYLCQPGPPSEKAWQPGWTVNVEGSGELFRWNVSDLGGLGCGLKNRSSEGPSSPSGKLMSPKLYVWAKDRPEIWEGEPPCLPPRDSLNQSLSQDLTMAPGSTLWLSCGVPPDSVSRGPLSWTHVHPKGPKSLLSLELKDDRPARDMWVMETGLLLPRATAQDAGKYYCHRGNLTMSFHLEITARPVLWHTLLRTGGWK
B11: W264P: CD19 variant (protein)
chain: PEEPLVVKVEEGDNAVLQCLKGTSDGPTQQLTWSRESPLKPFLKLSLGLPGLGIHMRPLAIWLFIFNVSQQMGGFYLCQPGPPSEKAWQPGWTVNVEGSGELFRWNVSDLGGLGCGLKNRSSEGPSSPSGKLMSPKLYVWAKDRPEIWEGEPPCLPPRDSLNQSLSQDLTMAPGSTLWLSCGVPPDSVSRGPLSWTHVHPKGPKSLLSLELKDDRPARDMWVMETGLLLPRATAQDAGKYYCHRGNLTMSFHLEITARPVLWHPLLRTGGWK
B12: G226T: CD19 variant (protein)
chain: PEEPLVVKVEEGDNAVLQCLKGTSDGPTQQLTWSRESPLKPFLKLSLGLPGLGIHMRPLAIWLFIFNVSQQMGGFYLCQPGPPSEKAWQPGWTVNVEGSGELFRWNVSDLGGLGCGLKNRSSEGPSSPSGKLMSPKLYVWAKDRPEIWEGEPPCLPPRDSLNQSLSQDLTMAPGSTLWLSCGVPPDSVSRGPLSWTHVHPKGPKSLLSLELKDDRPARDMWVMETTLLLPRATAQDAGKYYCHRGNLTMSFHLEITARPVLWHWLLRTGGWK
B13: M223T: CD19 variant (protein)
chain: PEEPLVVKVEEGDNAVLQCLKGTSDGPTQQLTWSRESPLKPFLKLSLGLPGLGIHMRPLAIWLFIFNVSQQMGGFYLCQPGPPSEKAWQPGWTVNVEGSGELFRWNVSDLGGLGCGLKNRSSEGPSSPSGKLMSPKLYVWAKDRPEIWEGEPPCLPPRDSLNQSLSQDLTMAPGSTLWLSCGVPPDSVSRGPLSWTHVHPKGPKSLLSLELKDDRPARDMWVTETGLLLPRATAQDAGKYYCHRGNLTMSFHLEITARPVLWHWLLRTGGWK
B14: W264K: CD19 variant (protein)
chain: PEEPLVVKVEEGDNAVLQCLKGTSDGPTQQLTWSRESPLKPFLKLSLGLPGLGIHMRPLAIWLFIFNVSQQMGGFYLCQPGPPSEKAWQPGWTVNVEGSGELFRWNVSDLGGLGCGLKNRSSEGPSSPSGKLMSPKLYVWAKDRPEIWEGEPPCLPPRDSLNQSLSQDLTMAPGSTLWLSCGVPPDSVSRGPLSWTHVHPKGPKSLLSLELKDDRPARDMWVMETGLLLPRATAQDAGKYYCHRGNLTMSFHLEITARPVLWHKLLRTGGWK
B15: W262S: CD19 variant (protein)
chain: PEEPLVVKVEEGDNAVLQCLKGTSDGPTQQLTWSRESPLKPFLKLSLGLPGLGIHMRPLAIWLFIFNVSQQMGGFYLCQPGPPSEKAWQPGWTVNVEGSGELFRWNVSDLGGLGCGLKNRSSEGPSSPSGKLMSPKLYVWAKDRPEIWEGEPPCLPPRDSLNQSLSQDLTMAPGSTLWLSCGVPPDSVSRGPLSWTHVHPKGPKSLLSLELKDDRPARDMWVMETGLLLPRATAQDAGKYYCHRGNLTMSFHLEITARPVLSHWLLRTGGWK
B16: W264Q: CD19 variant (protein)
chain: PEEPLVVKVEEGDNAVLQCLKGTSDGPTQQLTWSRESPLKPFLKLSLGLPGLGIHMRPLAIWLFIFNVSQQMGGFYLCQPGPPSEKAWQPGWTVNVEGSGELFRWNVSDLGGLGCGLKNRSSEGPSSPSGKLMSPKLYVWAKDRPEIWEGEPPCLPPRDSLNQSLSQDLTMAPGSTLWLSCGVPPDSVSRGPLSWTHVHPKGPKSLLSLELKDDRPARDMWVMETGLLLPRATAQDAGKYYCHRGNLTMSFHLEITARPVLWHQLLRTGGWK
B17: W264G: CD19 variant (protein)
chain: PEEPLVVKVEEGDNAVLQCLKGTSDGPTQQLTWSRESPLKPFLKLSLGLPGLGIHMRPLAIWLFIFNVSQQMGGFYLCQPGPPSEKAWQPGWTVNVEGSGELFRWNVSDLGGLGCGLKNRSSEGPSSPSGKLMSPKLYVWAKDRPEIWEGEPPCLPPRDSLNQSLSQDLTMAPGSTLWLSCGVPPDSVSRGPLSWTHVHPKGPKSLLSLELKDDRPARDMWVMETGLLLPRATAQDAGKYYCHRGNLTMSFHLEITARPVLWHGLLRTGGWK

This assay relates to FMC63. Briefly: CD19 variant binding to anti-CD19 antibody FMC63 (score). Particulars: Table 1A, CD19 single mutants (positions of SEQ ID NO:2).
FMC63, sequence (as listed by the source): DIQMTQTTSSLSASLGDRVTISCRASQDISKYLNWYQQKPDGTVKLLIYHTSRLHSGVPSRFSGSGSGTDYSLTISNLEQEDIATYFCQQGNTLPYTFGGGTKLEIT
FMC63, sequence (as listed by the source): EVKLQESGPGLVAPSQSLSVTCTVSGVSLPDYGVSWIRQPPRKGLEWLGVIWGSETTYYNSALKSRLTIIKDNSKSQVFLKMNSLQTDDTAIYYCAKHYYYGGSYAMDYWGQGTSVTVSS
As to B1, the “FMC63 Binding Score” value is reported as 7.6 ± .5.
As for B2, the “FMC63 Binding Score” value is listed as 7.4 ± .4.
With B3 the figure was 6.9 ± .5.
With B4 the figure was 6.7 ± .3.
The value for B5 was 6.9 ± .3; that for B6 was 6.9 ± .3.
Consider B7, for which the “FMC63 Binding Score” value was 7.4 ± .3.
With B8 the figure was 7.4 ± .7.
The value for B9 was 7.5 ± .7; that for B10 was 7.2 ± .8; that for B11 was 8.6 ± 1.5.
On to B12, for which the “FMC63 Binding Score” value is 7.3 ± .6.
For B13, the “FMC63 Binding Score” value is reported as 6.7 ± .4.
The value for B14 was 8. ± 1; that for B15 was 7. ± .3; that for B16 was 7.4 ± .8.
With B17 the figure was 7.2 ± .3.

Source of the values: patent US20220387487A1, “COMPOSITIONS AND METHODS FOR TREATMENT OF CANCER” (Aleta Biotherapeutics Inc., priority 2019, published 2022).
